{"source": "patent US20230381281A1", "about": "“PHARMACEUTICAL COMPOSITION COMPRISING GLUCAGON/GLP-1/GIP TRIPLE AGONIST OR LONG-ACTING CONJUGATE THEREOF FOR PREVENTING OR TREATING LUPUS-RELATED DISEASES” (HANMI PHARM. CO., LTD., priority 2020, published 2023)", "binders": {"B1": {"name": "Triple agonist of SEQ ID NO: 40 (peptide)", "peptide": "H[Aib]QGTFTSDKSKYLDERACQDFVQWLLDGGPSSGAPPPS"}, "B2": {"name": "Triple agonist of SEQ ID NO: 42 (peptide)", "peptide": "Y[Aib]QGTFTSDYSKYLDEKRAKEFVQWLLDHHPSSGQPPPSC", "modifications": "bridge 16-20"}, "B3": {"name": "Triple agonist of SEQ ID NO: 44 (peptide)", "peptide": "HGQGTFTSDCSKQLDGQAAQEFVAWLLAGGPSSGAPPPS"}, "B4": {"name": "Triple agonist of SEQ ID NO: 36 (peptide)", "peptide": "H[Aib]QGTFTSDYSKYLCEKRQKEFVQWLLNGGPSSGAPPPSG", "modifications": "bridge 16-20"}, "B5": {"name": "Triple agonist of SEQ ID NO: 1 (peptide)", "peptide": "H[Aib]QGTFTSDVSSYLDGQAAKEFIAWLVKGC"}, "B6": {"name": "Triple agonist of SEQ ID NO: 41 (peptide)", "peptide": "H[Aib]QGTFTSDKSKYLDECAAQDFVQWLLDGGPSSGAPPPS"}, "B7": {"name": "Triple agonist of SEQ ID NO: 37 (peptide)", "peptide": "H[Aib]QGTFTSDYSKYLDECRQKEFVQWLLNGGPSSGAPPPSG", "modifications": "bridge 16-20"}, "B8": {"name": "Triple agonist of SEQ ID NO: 43 (peptide)", "peptide": "Y[Aib]QGTFTSDYSKYLDEKRAKEFVQWLLDHHCSSGQPPPS", "modifications": "bridge 16-20"}, "B9": {"name": "Triple agonist of SEQ ID NO: 34 (peptide)", "peptide": "H[Aib]QGTFTSDYSKYLDEKRQKEFVNWLLAQKC", "modifications": "bridge 16-20"}, "B10": {"name": "Triple agonist of SEQ ID NO: 4 (peptide)", "peptide": "H[Aib]QGTFTSDVSSYLLGQQQKEFIAWLVKGC"}, "B11": {"name": "Triple agonist of SEQ ID NO: 35 (peptide)", "peptide": "H[Aib]QGTFTSDYSIAMDEIHQKDFVNWLLNTKC", "modifications": "bridge 16-20"}, "B12": {"name": "Triple agonist of SEQ ID NO: 39 (peptide)", "peptide": "H[Aib]QGTFTSDYSKYLDGQHAQCFVAWLLAGGGPSSGAPPPS"}, "B13": {"name": "Triple agonist of SEQ ID NO: 38 (peptide)", "peptide": "{Acetyl(2-(4-imidazolyl))}-[Aib]QGTFTSDKSSYLDERAAQDFVQWLLDGGPSSGAPPPSS"}}, "note": "Bridge positions count the residues as written; N and C are the ends. Square brackets hold non-standard residues; d marks the D form. Ends that are not written are not given here. * marks the point of attachment. Acetyl(2-(4-imidazolyl)) = O=C(Cc1c[nH]cn1)*; Aib = CC(C)(N)C(=O)O", "data": [{"molecular_target": "human GCG receptor (human, UniProt P47871 26-477)", "sequence (P47871 26-477)": "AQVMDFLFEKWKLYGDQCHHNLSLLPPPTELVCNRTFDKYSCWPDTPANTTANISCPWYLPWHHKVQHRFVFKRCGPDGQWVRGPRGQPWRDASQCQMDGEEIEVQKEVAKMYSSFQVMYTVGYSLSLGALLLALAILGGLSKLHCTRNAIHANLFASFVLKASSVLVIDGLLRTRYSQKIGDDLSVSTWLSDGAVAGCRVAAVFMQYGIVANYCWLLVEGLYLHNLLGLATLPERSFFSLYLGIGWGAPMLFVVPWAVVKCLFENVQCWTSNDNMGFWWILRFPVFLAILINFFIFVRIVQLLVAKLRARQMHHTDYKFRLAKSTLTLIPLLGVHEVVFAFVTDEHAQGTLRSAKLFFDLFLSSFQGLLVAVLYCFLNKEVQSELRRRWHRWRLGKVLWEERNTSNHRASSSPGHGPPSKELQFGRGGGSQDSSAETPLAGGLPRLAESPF", "assay": "cell-based or functional assay", "units": {"In vitro activity compared to native peptide (%) vs Glucagon": "%"}, "values": [{"binder": "B1", "In vitro activity compared to native peptide (%) vs Glucagon": "< 0.1"}, {"binder": "B2", "In vitro activity compared to native peptide (%) vs Glucagon": 206}, {"binder": "B3", "In vitro activity compared to native peptide (%) vs Glucagon": "< 0.1"}, {"binder": "B4", "In vitro activity compared to native peptide (%) vs Glucagon": 0.39}, {"binder": "B5", "In vitro activity compared to native peptide (%) vs Glucagon": "< 0.1"}, {"binder": "B6", "In vitro activity compared to native peptide (%) vs Glucagon": "< 0.1"}, {"binder": "B7", "In vitro activity compared to native peptide (%) vs Glucagon": 6.21}, {"binder": "B8", "In vitro activity compared to native peptide (%) vs Glucagon": 88.4}, {"binder": "B9", "In vitro activity compared to native peptide (%) vs Glucagon": 0.92}, {"binder": "B10", "In vitro activity compared to native peptide (%) vs Glucagon": "< 0.1"}, {"binder": "B11", "In vitro activity compared to native peptide (%) vs Glucagon": "< 0.1"}, {"binder": "B12", "In vitro activity compared to native peptide (%) vs Glucagon": 0.53}]}, {"molecular_target": "T1, human GIP receptor (human, UniProt P48546 22-466)", "T1 sequence (looked up)": "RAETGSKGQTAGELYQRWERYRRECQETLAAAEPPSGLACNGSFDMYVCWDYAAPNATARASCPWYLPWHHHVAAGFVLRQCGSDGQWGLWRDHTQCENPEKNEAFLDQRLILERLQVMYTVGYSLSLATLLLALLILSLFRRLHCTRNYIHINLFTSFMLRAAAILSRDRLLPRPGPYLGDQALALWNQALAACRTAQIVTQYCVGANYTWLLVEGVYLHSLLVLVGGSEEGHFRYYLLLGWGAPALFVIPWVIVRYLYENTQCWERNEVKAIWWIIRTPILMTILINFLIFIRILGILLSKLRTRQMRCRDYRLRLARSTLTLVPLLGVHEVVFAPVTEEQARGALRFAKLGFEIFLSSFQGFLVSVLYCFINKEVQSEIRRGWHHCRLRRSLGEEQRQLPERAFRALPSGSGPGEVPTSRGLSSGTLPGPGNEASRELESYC", "assay": "cell-based or functional assay", "units": {"In vitro activity compared to native peptide (%) vs GIP": "%"}, "values": [{"binder": "B1", "In vitro activity compared to native peptide (%) vs GIP": "< 0.1"}, {"binder": "B2", "In vitro activity compared to native peptide (%) vs GIP": 7.8}, {"binder": "B3", "In vitro activity compared to native peptide (%) vs GIP": "< 0.1"}, {"binder": "B4", "In vitro activity compared to native peptide (%) vs GIP": 0.2}, {"binder": "B5", "In vitro activity compared to native peptide (%) vs GIP": "< 0.1"}, {"binder": "B6", "In vitro activity compared to native peptide (%) vs GIP": "< 0.1"}, {"binder": "B7", "In vitro activity compared to native peptide (%) vs GIP": 2.2}, {"binder": "B8", "In vitro activity compared to native peptide (%) vs GIP": 3.7}, {"binder": "B9", "In vitro activity compared to native peptide (%) vs GIP": 0.6}, {"binder": "B10", "In vitro activity compared to native peptide (%) vs GIP": "< 0.1"}, {"binder": "B11", "In vitro activity compared to native peptide (%) vs GIP": 1.3}, {"binder": "B12", "In vitro activity compared to native peptide (%) vs GIP": "< 0.1"}]}, {"molecular_target": "human GLP-1 receptor (human, UniProt P43220 24-463)", "assay": "cell-based or functional assay", "units": {"In vitro activity compared to native peptide (%) vs GLP-1": "%"}, "values": [{"binder": "B1", "In vitro activity compared to native peptide (%) vs GLP-1": 75.2}, {"binder": "B2", "In vitro activity compared to native peptide (%) vs GLP-1": 33.9}, {"binder": "B13", "In vitro activity compared to native peptide (%) vs GLP-1": 2.3}, {"binder": "B3", "In vitro activity compared to native peptide (%) vs GLP-1": 1.3}, {"binder": "B4", "In vitro activity compared to native peptide (%) vs GLP-1": 37.4}, {"binder": "B5", "In vitro activity compared to native peptide (%) vs GLP-1": 3.2}, {"binder": "B6", "In vitro activity compared to native peptide (%) vs GLP-1": 34.3}, {"binder": "B7", "In vitro activity compared to native peptide (%) vs GLP-1": 236}, {"binder": "B8", "In vitro activity compared to native peptide (%) vs GLP-1": 12.6}, {"binder": "B9", "In vitro activity compared to native peptide (%) vs GLP-1": 19.1}, {"binder": "B10", "In vitro activity compared to native peptide (%) vs GLP-1": 8.5}, {"binder": "B11", "In vitro activity compared to native peptide (%) vs GLP-1": 7.5}, {"binder": "B12", "In vitro activity compared to native peptide (%) vs GLP-1": 13.9}]}]}
